Data on six molecules can be found in patent US20260022175A1 (Chugai, published 2026).

The Kd is the concentration at which binding is half-saturated.

Positions count from the first letter of the chain named. Numbers in names are those of the source.

The labels stand for the following.
B1: 04H1654-KT461/04L1612-lam1//04H1656-HT443/04L1612-lam1 (antibody, human IgG1, lambda)
heavy 1: QVQLVESGGGVVQPGGSLRLSCAASGFTFSSKTMNWVRQAPGKGLEWVSSISTQSHYIYYARSVRGRFTISRDNAKNSLYLQMNSLRAEDTAVYYCARYGKREDMLWVFDYWGQGTLVTVSSASTKGPSVFPLAPSSKSTSGGTAALGCLVKDYFPEPVTVSWNSGALTSGVHTFPAVLQSSGLYSLSSVVTVPSSSLGTQTYICNVNHKPSNTKVDKRVEPKSCDKTHTCPPCPAPEFQWGPMVFLFPPKPKDVLMISRTPEVTCVVVDVSDEEPEVKFNWYVDGVEVHNAKTKPREEQYNATYRVVSVLPVLHQDWLNGKEYKCKVSNDALPAPEEKTISKAKGQPREPQVYTLPPSRKEMTKNQVSLTCLVKGFYPSDIAVEWESNGQPENNYKTTPPVLDSDGSFFLYSKLTVDKSRWQQGNVFSCSVMHEALHNHYTQKSLSLSP
heavy 2: B1 heavy 1 with R62E, K101A, F239L, Q240L, W241A, M244S, D273H, K339E, K361E, K444E
light: QSALTQPPSASGSPGQSVTISCEGPSTGVGDYTYVHWYQQHPGKAPKLMIYFTSKKPSGVPDRFSGSKSGNTASLTVSGLQAEDEADYYCQTYAAPLGPMFGGGTKLTVLGQPKAAPSVTLFPPSSEELQANKATLVCLISDFYPGAVTVAWKADSSPVKAGVETTTPSKQSNNKYAASSYLSLTPEQWKSHRSYSCQVTHEGSTVEKTVAPTECS
notes: Heterodimerized antibody
B2: 04H1654-KT481/04L1612-lam1//04H1656-HT498/04L1612-lam1 (antibody)
heavy 1: B1 heavy 1 with N439A, Y441T, Q443R, S445E
heavy 2: QVQLVESGGGVVQPGGSLRLSCAASGFTFSSKTMNWVRQAPGKGLEWVSSISTQSHYIYYAESVRGRFTISRDNAKNSLYLQMNSLRAEDTAVYYCARYGAREDMLWVFDYWGQGTLVTVSSASTKGPSVFPLAPSSKSTSGGTAALGCLVKDYFPEPVTVSWNSGALTSGVHTFPAVLQSSGLYSLSSVVTVPSSSLGTQTYICNVNHKPSNTKVDKRVEPKSCDKTHTCPPCPAPELLAGPSVFLFPPKPKDVLMISRTPEVTCVVVDVSHEEPEVKFNWYVDGVEVHNAKTKPREEQYNATYRVVSVLPVLHQDWLNGKEYKCKVSNDALPAPEEETISKAKGQPREPQVYTLPPSREEMTKNQVSLTCLVKGFYPSDIAVEWESNGQPENNYKTTPPVLDSDGSFFLYSKLTVDKSRWQQGNVFSCSVMHEALHAHTTREELSLSP
light: B1 light
notes: Heterodimerized antibody with N434A/Y436T/Q438R/S440E
B3: 04H1654-KT462/04L1612-lam1//04H1656-HT445/04L1612-lam1 (antibody, human IgG1, lambda)
heavy 1: B1 heavy 1 with E337I
heavy 2: B2 heavy 2 with A335K, E337D, A439N, T441Y, R443Q, E445S
light: B1 light
notes: Heterodimerized antibody
B4: 04H1654-KT473/04L1610-lam1//04H1656-HT482/04L1610-lam1 (antibody)
heavy 1: B1 heavy 1 with E337I, N439A, Y441T, Q443R, S445E
heavy 2: B2 heavy 2 with A335K, E337D
light: B1 light with T33N, Y34W
notes: Heterodimerized antibody with N434A/Y436T/Q438R/S440E; also called SW1610-ART6+ACT1
B5: 04H1654-KT481/04L1610-lam1//04H1656-HT498/04L1610-lam1 (antibody)
heavy 1: B1 heavy 1 with N439A, Y441T, Q443R, S445E
heavy 2: B2 heavy 2
light: B1 light with T33N, Y34W
notes: as for B2
B6: 04H1654-KT473/04L1612-lam1//04H1656-HT482/04L1612-lam1 (antibody)
heavy 1: B1 heavy 1 with E337I, N439A, Y441T, Q443R, S445E
heavy 2: B2 heavy 2 with A335K, E337D
light: B1 light
notes: as for B2

T2 sequence (P08637 17-208 F176V): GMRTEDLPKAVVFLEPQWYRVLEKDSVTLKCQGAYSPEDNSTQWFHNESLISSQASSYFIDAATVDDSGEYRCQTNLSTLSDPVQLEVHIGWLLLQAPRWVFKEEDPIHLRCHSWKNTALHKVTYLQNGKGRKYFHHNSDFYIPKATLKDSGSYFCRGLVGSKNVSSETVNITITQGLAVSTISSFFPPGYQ

The first test concerns the target T1, human FcγRIIb extracellular domain with C-terminal His-tag (human, UniProt P31994 43-217).
T1 construct: extracellular domain; also called hFcγR IIb
T1 sequence (looked up): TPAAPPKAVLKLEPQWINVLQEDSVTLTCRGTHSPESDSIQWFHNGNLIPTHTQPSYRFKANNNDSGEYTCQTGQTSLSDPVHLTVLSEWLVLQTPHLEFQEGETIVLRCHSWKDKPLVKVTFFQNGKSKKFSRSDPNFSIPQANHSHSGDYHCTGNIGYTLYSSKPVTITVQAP
The test can be described thus: SPR; FcγRIIb at 1000 nM, bound amount per unit captured Ab. For orientation: SPR reads the build-up and loss of mass on a sensor chip optically.
Protocol: (§1) The interaction between the generated antibodies and human FcγRs was analyzed by the following method using Biacore T200. 50 mM Na-Phosphate, 150 mM NaCl, 0.05% Tween20 (pH 7.4) was used as the running buffer, and the assay was performed at 25° C. For the sensor chips, Series S SA (GE Healthcare) chips onto which CaptureSelect Human Fab-lambda Kinetics Biotin Conjugate (Thermo Fisher Scientific) was immobilized were used. The antibodies of interest were captured onto these chips and each FcγR diluted in the running buffer was allowed to interact with them. Chips were regenerated with 10 mM Glycine-HCl (pH 1.5) and 25 mM NaOH, and assay was performed by repeatedly capturing antibodies. The dissociation constants KD (mol/L) for FcγRs of each antibody were calculated using Biacore T200 Evaluation Software 2.0, using the 1:1 Langmuir binding model for FcγRIa and FcγRIIIa and the steady state affinity model for FcγRIIa. For FcγRIIb, the binding amount of FcγRIIb per unit amount of antibody was calculated by correcting the binding amount of FcγRIIb obtained from the sensorgram obtained by the measurement with the amount of antibody captured onto the chip surface.
Take B1: the Binding amount was determined as 0.025.

Regarding B2, the Binding amount came out at 0.022.

The molecule B3 had a Binding amount of 0.028.

B4 yielded a Binding amount of 0.026.

In the case of B5, the Binding amount came to 0.022.

B6 yielded a Binding amount of 0.026.

The next test concerns the target T2, human FcγRIIIa V allotype extracellular domain with C-terminal His-tag (human, UniProt P08637 17-208).
T2 construct: extracellular domain; also called hFcγR IIIa V
The test can be described thus: SPR Biacore T200, Ab captured via Fab-lambda, pH 7.4, 25C.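 Note: antibodies captured on a streptavidin chip carrying biotinylated anti-Fab-lambda, with each FcγR injected as analyte in phosphate buffer. KD fitted by 1:1 Langmuir or steady-state model depending on receptor.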
Consider B1, for which the Kd came to 1.5 nM.

B2 showed a Kd of 1.7 nM.

Regarding B3, binding was characterised by a dissociation constant (Kd) of 2.3 nM.

The molecule B4 registered a dissociation constant Kd of 2.1 nM.

As for B5, the Kd came to 1.6 nM. This Kd and that of the molecule before are within 1.5-fold of each other.

Take B6: the Kd turned out to be 2.2 nM.

For a further test, the target named is T3, human FcγRIIa H allotype extracellular domain with C-terminal His-tag (human, UniProt P12318 34-217).
T3 construct: extracellular domain; also called hFcγR IIa H
T3 sequence (looked up): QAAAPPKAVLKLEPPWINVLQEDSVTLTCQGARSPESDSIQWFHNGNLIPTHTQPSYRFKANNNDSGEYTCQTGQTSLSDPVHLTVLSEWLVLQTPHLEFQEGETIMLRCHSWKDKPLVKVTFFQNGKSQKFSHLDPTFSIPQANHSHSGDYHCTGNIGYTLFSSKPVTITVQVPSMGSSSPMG
The description is as above.
In turn, B1 displayed a Kd of 210 nM.

B2 yielded a Kd of 230 nM.

With B3, the Kd came to 91 nM.

Take B4: the dissociation constant (Kd) amounted to 81 nM. The Kd values of the last two molecules are within 1.5-fold of each other.

In turn, B5 displayed a Kd of 230 nM.

For the molecule B6, binding was put at a Kd of 91 nM.

Another test deals with T4, human FcγRIIIa F allotype extracellular domain with C-terminal His-tag (human, UniProt P08637 17-208).
T4 construct: extracellular domain; also called hFcγR IIIa F
T4 sequence (P08637 17-208): as the sequence (P08637 17-208 F176V) above, with V160F counted along it
Described as above.
B1 came in with a Kd of 2.6 nM.

B2 registered a Kd of 2.9 nM.

In the case of B3, the dissociation constant (Kd) was determined as 3.4 nM.

For the molecule B4, the Kd was found to be 3.8 nM.

In turn, B5 returned a Kd of 2.8 nM. This Kd and that of the molecule before are within 1.5-fold of each other.

In turn, B6 yielded a Kd of 3.9 nM.

For a further test, the target named is T5, human FcγRIa extracellular domain with C-terminal His-tag (human, UniProt P12314 16-292).
T5 construct: extracellular domain; also called hFcγR Ia; hFcγRIa
T5 sequence (P12314 16-292): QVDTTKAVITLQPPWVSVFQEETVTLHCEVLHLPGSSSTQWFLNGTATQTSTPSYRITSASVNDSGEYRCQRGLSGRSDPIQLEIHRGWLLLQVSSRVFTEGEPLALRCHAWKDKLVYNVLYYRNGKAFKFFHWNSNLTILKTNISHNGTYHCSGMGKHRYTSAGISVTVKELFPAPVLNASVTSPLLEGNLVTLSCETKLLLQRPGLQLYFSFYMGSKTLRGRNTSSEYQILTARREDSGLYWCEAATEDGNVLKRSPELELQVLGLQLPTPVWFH
The description is as above.
B1: binding was put at a Kd of 0.039 nM.

Molecule B2 returned a Kd of 0.043 nM.

B3 yielded a Kd of 0.041 nM. This Kd and that of the molecule before are within 1.5-fold of each other.

B4: the Kd stood at 0.046 nM. The Kd values of the last two molecules are within 1.5-fold of each other.

With B5, binding was put at a Kd of 0.033 nM.

As to B6, the affinity, expressed as Kd, was 0.048 nM.

Another test addresses T6, human FcγRIIa R allotype extracellular domain with C-terminal His-tag (human, UniProt P12318 34-217).
T6 construct: extracellular domain; also called hFcγR IIa R
T6 sequence (looked up): T3 sequence (looked up) with H134R
The description is as above.
The molecule B1 returned an equilibrium dissociation constant (Kd) of 250 nM.

B2 registered a Kd of 270 nM.

Turning to B3, binding was put at a Kd of 140 nM.

With B4, the Kd is 150 nM. The Kd values of the last two molecules are within 1.5-fold of each other.

Molecule B5 yielded a Kd of 260 nM. This Kd is about 1.7-fold higher than that of the molecule before.

The molecule B6 displayed a Kd of 150 nM.

The next test deals with T7, human FcRn (human, UniProt P55899 24-290; P61769 21-119).
T7 construct: Prepared by the method of WO 2010/107110; also called hFcRn
T7 sequence (P55899 24-290 limits assumed, chain 1 of 2): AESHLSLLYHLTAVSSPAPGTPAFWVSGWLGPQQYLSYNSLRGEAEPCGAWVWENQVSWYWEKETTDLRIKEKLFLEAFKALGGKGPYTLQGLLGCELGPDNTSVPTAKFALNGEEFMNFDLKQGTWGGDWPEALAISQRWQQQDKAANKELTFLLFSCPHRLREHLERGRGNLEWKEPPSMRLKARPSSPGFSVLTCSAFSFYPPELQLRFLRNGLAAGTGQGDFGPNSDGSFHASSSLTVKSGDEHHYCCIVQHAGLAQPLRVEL
T7 sequence (P61769 21-119 limits assumed, chain 2 of 2): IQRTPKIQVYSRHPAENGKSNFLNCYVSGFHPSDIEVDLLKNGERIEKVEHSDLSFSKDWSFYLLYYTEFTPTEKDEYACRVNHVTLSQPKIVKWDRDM
Briefly: SPR; KD of 04H1637-G1m/04L1610-lam1 divided by KD of variant.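 Note: biacore T200 SPR at 25 °C, antibodies captured on anti-Fab-lambda SA chip with receptor as analyte, running buffer pH 7.4 for FcγRs and pH 6.0 for FcRn.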
Protocol: as §1
(§2) The interaction between the generated antibodies and human FcRn was analyzed by the following method using Biacore T200. 50 mM Na-Phosphate, 150 mM NaCl, 0.05% Tween20 (pH 6.0) was used as the running buffer, and the assay was performed at 25° C. For the sensor chip, Series S SA (GE Healthcare) chips onto which CaptureSelect Human Fab-lambda Kinetics Biotin Conjugate (Thermo Fisher Scientific) was immobilized were used. The antibodies of interest were captured onto these chips and FcRn diluted in the running buffer was allowed to interact with them. Chips were regenerated with 10 mM Glycine-HCl (pH 1.5) and 25 mM NaOH, and assay was performed by repeatedly capturing antibodies. The dissociation constant for FcRn of each antibody was calculated using the steady state model, using Biacore T200 Evaluation Software 2.0.
For B1, the “Relative value to KD between G1m and hFcRn” value stood at 0.8.

With B2, the “Relative value to KD between G1m and hFcRn” value worked out at 2.2.

For B3, the “Relative value to KD between G1m and hFcRn” value was determined as 0.8.

For the molecule B4, the “Relative value to KD between G1m and hFcRn” value was 2.3.

Regarding B5, the “Relative value to KD between G1m and hFcRn” value stood at 2.3.

Consider B6, for which the “Relative value to KD between G1m and hFcRn” value was determined as 2.1.

Another test addresses T2, human FcγRIIIa V allotype extracellular …. Described as above.
Protocol: as §1, §2
Regarding B1, the “Relative value to KD between G1m and hFcγRs” value is 159.

As to B2, the “Relative value to KD between G1m and hFcγRs” value was 145.

As to B3, the “Relative value to KD between G1m and hFcγRs” value was 106.

As to B4, the “Relative value to KD between G1m and hFcγRs” value was 115.

On to B5, for which the “Relative value to KD between G1m and hFcγRs” value was 152.

For B6, the “Relative value to KD between G1m and hFcγRs” value is 110.

For another test, the target named is T3, human FcγRIIa H allotype extracellular …. The test is described as above.
Protocol: as §1, §2
As for B1, the “Relative value to KD between G1m and hFcγRs” value turned out to be 7.1.

Turning to B2, the “Relative value to KD between G1m and hFcγRs” value came to 6.4.

Turning to B3, the “Relative value to KD between G1m and hFcγRs” value turned out to be 16.1.

As to B4, the “Relative value to KD between G1m and hFcγRs” value stood at 18.

As to B5, the “Relative value to KD between G1m and hFcγRs” value came out at 6.5.

With B6, the “Relative value to KD between G1m and hFcγRs” value is 16.2.

The next test addresses T4, human FcγRIIIa F allotype extracellular …. Described as above.
Protocol: as §1, §2
With B1, the “Relative value to KD between G1m and hFcγRs” value worked out at 537.

Turning to B2, the “Relative value to KD between G1m and hFcγRs” value came out at 479.

Consider B3, for which the “Relative value to KD between G1m and hFcγRs” value was found to be 408.

With B4, the “Relative value to KD between G1m and hFcγRs” value was 363.

In the case of B5, the “Relative value to KD between G1m and hFcγRs” value was 495.

For the molecule B6, the “Relative value to KD between G1m and hFcγRs” value came out at 355.

In a further test the target is T5, human FcγRIa extracellular domain with …. The test is described as above.
Protocol: as §1, §2
Consider B1, for which the “Relative value to KD between G1m and hFcγRs” value came to 1.3.

Consider B2, for which the “Relative value to KD between G1m and hFcγRs” value was found to be 1.1.

Take B3: the “Relative value to KD between G1m and hFcγRs” value is 1.2.

In the case of B4, the “Relative value to KD between G1m and hFcγRs” value was determined as 1.1.

As for B5, the “Relative value to KD between G1m and hFcγRs” value turned out to be 1.5.

Turning to B6, the “Relative value to KD between G1m and hFcγRs” value turned out to be 1.

The next test has as its target T6, human FcγRIIa R allotype extracellular …. The description is as above.
Protocol: as §1, §2
Take B1: the “Relative value to KD between G1m and hFcγRs” value worked out at 8.2.

In the case of B2, the “Relative value to KD between G1m and hFcγRs” value was determined as 7.6.

Consider B3, for which the “Relative value to KD between G1m and hFcγRs” value stood at 14.2.

In the case of B4, the “Relative value to KD between G1m and hFcγRs” value worked out at 13.9.

B5: the “Relative value to KD between G1m and hFcγRs” value worked out at 7.7.

For the molecule B6, the “Relative value to KD between G1m and hFcγRs” value stood at 13.8.

The next test has as its target T7, human FcRn. The test can be described thus: SPR Biacore T200, Ab captured via Fab-lambda, pH 6.0, 25C, steady state.
Protocol: as §2
Molecule B1 returned a dissociation constant (Kd) of 1600 nM.

Turning to B2, the affinity, expressed as Kd, was 600 nM.

Turning to B3, binding was put at a Kd of 1600 nM.

With B4, the Kd was determined as 580 nM.

B5 returned a Kd of 570 nM.

B6 gave a Kd of 620 nM.

For a further test, the target named is T1, human FcγRIIb extracellular domain with …. The test can be described thus: SPR; binding amount divided by that of 04H1637-G1m/04L1610-lam1.
With B1, the Relative binding amount amounted to 3.1.

In turn, B2 came in with a Relative binding amount of 2.8.

B3 came in with a Relative binding amount of 3.4.

With B4, the Relative binding amount turned out to be 3.2.

With B5, the Relative binding amount amounted to 2.7.

Turning to B6, the Relative binding amount stood at 3.2.
